Results on 3 molecules are retold here after patent publication US20090156489A1 (Genentech, published 2009).

Sequences and labels used below:
B1: human NGL-1-Fc (extracellular domain of human NGL-1 fused to human IgG1 Fc) (Fc fusion)
chain: QTCPSVCSCSNQFSKVICVRKNLREVPDGISTNTRLLNLHENQIQIIKVNSFKHLRHLEILQLSRNHIRTIEIGAFNGLANLNTLELFDNRLTTIPNGAFVYLSKLKELWLRNNPIESIPSYAFNRIPSLRRLDLGELKRLSYISEGAFEGLSNLRYLNLAMCNLREIPNLTPLIKLDELDLSGNHLSAIRPGSFQGLMHLQKLWMIQSQIQVIERNAFDNLQSLVEINLAHNNLTLLPHDLFTPLHHLERIHLHHNPWNCNCDILWLSWWIKDMAPSNTACCARCNTPPNLKGRYIGELDQNYFTCYAPVIVEPPADLNVTEGMAAELKCRASTSLTSVSWITPNGTVMTHGAYKVRIAVLSDGTLNFTNVTVQDTGMYTCMVSNSVGNTTASATLNVTAATTTPFSYFSTVTVETMEPSQDEARTTDNNVGPTPVVDWETTNVTTSLTPQSTRSTEKTFTIPVTDINSGIPGIDEVMKTTK
notes: also called NGL-1-ECD IgG Fc fusion protein; PRO331 ECD-Fc; not shown: human IgG1 Fc region
B2: recombinant human cMet-Fc fusion protein (R&D Systems) (Fc fusion)
chain: ECKEALAKSEMNVNMKYQLPNFTAETPIQNVILHEHHIFLGATNYIYVLNEEDLQKVAEYKTGPVLEHPDCFPCQDCSSKANLSGGVWKDNINMALVVDTYYDDQLISCGSVNRGTCQRHVFPHNHTADIQSEVHCIFSPQIEEPSQCPDCVVSALGAKVLSSVKDRFINFFVGNTINSSYFPDHPLHSISVRRLKETKDGFMFLTDQSYIDVLPEFRDSYPIKYVHAFESNNFIYFLTVQRETLDAQTFHTRIIRFCSINSGLHSYMEMPLECILTEKRKKRSTKKEVFNILQAAYVSKPGAQLARQIGASLNDDILFGVFAQSKPDSAEPMDRSAMCAFPIKYVNDFFNKIVNKNNVRCLQHFYGPNHEHCFNRTLLRNSSGCEARRDEYRTEFTTALQRVDLFMGQFSEVLLTSISTFIKGDLTIANLGTSEGRFMQVVVSRSGPSTPHVNFLLDSHPVSPEVIVEHTLNQNGYTLVITGKKITKIPLNGLGCRHFQSCSQCLSAPPFVQCGWCHDKCVRSEECLSGTWTQQICLPAIYKVFPNSAPLEGGTRLTICGWDFGFRRNNKFDLKKTRVLLGNESCTLTLSESTMNTLKCTVGPAMNKHFNMSIIISNGHGTTQYSTFSYVDPVITSISPKYGPMAGGTLLTLTGNYLNSGNSRHISIGGKTCTLKSVSNSILECYTPAQTISTEFAVKLKIDLANRETSIFSYREDPIVYEIHPTKSFISGGSTITGVGKNLNSVSVPRMVINVHEAGRNFTVACQHRSNSEIICCTTPSLQQLNLQLPLKTKAFFMLDGILSKYFDLIYVHNPVFKPFEKPVMISMGNENVLEIKGNDIDPEAVKGEVLKVGNKSCENIHLHSEAVLCTVPNDLLKLNSELNIEWKQAISSTVLGKVIVQPDQNFT
notes: extracellular domain; Bought protein; the construct is not described; not shown: Fc part of the bought fusion protein, not described
B3: human Netrin-G1-his (purified Netrin-G1 protein with a C-terminus His tag) (receptor, UniProt Q9Y2I2-1 29-409, looked up, not shown: small tags and cut ends)
chain: HYDLCKTQIYTEEGKVWDYMACQPESTDMTKYLKVKLDPPDITCGDPPETFCAMGNPYMCNNECDASTPELAHPPELMFDFEGRHPSTFWQSATWKEYPKPLQVNITLSWSKTIELTDNIVITFESGRPDQMILEKSLDYGRTWQPYQYYATDCLDAFHMDPKSVKDLSQHTVLEIICTEEYSTGYTTNSKIIHFEIKDRFAFFAGPRLRNMASLYGQLDTTKKLRDFFTVTDLRIRLLRPAVGEIFVDELHLARYFYAISDIKVRGRCKCNLHATVCVYDNSKLTCECEHNTTGPDCGKCKKNYQGRPWSPGSYLPIPKGTANTCIPSISSIGTNVCDNELLHCQNGGTCHNNVRCLCPAAYTGILCEKLRCEEAGSCGS
notes: Used purified in the pull-down and as a crude preparation (1 ug/ml) for coating in the solid phase assay; also called NetrinG-his

One assay concerns the target T1, human HGF protein (human, UniProt P14210 32-728, limits assumed).
T1 construct: also called hepatocyte growth factor
Put plainly: solution binding assay, pull-down with protein A beads, blot probed with anti-HGF (panel j). On the procedure:
(§1) Recombinant human NGL-1-Fc (a-c), human Netrin-G1-Fc (d-f) and human DCC-Fc (g-i) were used to label COS7 cells expressing human NGL-1 (a, d, g), human Netrin-G1 (b, e, h), chicken Netrin-1 (c, f, i). Specific binding of the transfected cells was evident for Netrin-G1-expressing cells labeled with NGL-1-Fc (b), for NGL-1-expressing cells labeled with Netrin-G 1-Fc (d), as well as for Netrin-1-expressing cells labeled with DCC-Fc (i). (j) The recombinant ECD-Fc fusion proteins (5 nM) indicated at the top (lanes 3-7) were incubated with human Netrin-G1-his (first row), chicken Netrin-1-his (second row) or human HGF protein (third row) in a solution binding assay. Complexes were pulled down by protein A-conjugated beads and probed with His-Probe (anti-His), antibodies to chicken netrin-1 and monoclonal antibodies to human HGF, as indicated. Direct and specific binding of NGL-1-Fc and netrin-G1-His (50 kDa) is shown in the first row. The netrin-1-His protein (75-85 kDa) binds strongly to DCC-Fc and Unc5-Fc (lanes 3 and 4, second row), extremely weakly to NGL-1-Fc (lane 5, second row), and not at all to human cMet-Fc (lane 6). HGF binds to cMet-Fc (lane 6, third row). Lane 1, directly loaded netrin-G1-His; lane 2, directly loaded netrin-1-His; lane 7, directly loaded HGF.
(§2) The question remained whether Netrin-G1 and NGL-1 directly interact with each other. […]

The target of assay [1] is T2, DCC expressed on COS cells (human, UniProt P43146 26-1447).
T2 construct: whole, on cells
T2 sequence (P43146 26-1447): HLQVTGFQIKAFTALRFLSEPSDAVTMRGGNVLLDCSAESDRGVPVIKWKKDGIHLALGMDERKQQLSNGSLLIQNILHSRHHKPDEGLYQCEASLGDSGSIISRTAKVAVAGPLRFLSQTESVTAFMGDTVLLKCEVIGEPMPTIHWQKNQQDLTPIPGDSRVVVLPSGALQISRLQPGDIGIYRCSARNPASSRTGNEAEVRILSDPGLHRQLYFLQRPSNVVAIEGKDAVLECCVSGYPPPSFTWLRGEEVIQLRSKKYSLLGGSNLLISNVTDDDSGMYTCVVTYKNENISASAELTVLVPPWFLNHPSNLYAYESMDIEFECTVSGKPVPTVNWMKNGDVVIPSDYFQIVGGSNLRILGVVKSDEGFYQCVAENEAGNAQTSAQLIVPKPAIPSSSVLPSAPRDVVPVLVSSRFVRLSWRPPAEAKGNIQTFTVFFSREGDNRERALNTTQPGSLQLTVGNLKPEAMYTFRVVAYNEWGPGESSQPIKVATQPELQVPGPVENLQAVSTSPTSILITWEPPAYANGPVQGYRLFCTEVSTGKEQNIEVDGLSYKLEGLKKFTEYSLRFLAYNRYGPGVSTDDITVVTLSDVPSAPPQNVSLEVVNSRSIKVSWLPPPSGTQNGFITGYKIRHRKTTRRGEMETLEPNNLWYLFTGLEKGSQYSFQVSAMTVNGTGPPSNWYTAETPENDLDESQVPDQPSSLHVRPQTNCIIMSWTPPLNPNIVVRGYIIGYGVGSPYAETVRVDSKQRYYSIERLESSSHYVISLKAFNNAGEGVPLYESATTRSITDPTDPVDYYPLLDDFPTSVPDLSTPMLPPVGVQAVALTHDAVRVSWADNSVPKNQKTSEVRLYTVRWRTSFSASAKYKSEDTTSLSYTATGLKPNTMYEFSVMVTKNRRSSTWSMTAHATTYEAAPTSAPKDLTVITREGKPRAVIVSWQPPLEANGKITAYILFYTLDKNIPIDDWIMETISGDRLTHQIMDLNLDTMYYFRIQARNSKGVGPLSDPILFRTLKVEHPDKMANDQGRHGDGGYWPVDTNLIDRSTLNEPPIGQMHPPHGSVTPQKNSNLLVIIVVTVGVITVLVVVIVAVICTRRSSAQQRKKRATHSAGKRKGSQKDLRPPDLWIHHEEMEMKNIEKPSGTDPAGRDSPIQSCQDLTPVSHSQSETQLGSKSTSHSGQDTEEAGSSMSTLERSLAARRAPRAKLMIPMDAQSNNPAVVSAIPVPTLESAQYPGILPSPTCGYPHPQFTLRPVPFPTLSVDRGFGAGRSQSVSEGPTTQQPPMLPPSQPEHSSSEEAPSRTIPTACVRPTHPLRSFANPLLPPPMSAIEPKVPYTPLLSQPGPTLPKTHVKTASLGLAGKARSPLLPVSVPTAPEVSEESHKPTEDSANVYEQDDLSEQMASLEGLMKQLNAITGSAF
Put plainly: cell surface binding assay on transfected COS7 cells, fluorescence microscopy (data not shown). As for the experimental part: (§3) The resultant fusion proteins were expressed and used in binding assays over a panel of ˜400 putative cell surface transmembrane or GPI-anchored cell surface human proteins that were transiently expressed in COS7 cells. Purified ECD-Fc fusion proteins (0.5 μg/ml) or the crude baculovirus lysates were added to transiently transfected COS7 cells for 1-2 hours at room temperature. After 3 rinses with cold phosphate buffered saline (PBS), the bound protein was cross-linked to the cell surface with 4% paraformaldehyde. The bound Fc fusion protein was detected by biotinylated anti-human IgGFc and R-phycoerythrin-conjugated streptavidin (Jackson Immunoresearch). Cell surface staining was visualized by fluorescent microscopy and images were taken with the Penguin 800CL digital camera system (Pixera).
(§4) Although the NGL-1 and Netrin-G1 interaction appeared to be specific within the context of the screen, the classical Netrins and their known receptors, DCC and Unc5, were not included in the screen. Thus whether NGL-1 also interacts with Netrin-1 and its receptors was determined. Using the same cell surface binding assay, NGL-1, Netrin-G1, or Netrin-1 were expressed in COS7 cells (rows in FIG. 1a-i) and their ability to bind the IgG Fe fusion protein of NGL-1, Netrin-G1, or DCC (columns in FIG. 1a-i) was determined. […]

For assay [2], the target named is T3, human NGL-1 expressed on COS7 cells (human, UniProt Q9HCJ2 43-640).
T3 construct: also called PRO331; Netrin-G1 Ligand
T3 sequence: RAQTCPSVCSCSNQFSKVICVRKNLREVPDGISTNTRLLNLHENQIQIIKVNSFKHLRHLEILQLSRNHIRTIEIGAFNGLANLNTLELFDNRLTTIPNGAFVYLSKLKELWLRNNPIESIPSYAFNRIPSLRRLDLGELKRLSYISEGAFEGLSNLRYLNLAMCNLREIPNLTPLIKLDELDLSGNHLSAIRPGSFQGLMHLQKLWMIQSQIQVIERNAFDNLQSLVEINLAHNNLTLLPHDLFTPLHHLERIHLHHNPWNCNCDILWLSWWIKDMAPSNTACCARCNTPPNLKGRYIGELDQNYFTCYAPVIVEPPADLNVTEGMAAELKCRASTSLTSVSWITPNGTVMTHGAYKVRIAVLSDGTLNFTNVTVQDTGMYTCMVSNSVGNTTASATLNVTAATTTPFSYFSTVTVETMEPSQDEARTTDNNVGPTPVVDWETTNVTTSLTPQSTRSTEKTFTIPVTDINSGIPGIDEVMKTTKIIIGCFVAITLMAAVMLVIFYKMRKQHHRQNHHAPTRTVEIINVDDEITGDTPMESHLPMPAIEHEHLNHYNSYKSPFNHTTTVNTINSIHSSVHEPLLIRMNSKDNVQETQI
Put plainly: cell surface binding assay on transfected COS7 cells, fluorescence microscopy. As for the experimental part: as §3, §4

In assay [3] the target is B3. Put plainly: solid phase binding assay: Netrin-G1-his coated in microtiter wells, NGL-1-Fc in solution, OD450; specific binding = total minus cMet-Fc binding. As for the experimental part: (§5) The binding affinity of NGL-1 and Netrin-G1 was then evaluated by a solid phase binding assay. Crude NetrinG-his protein (1 μg/ml) was coated in microtiter wells and non-specific binding sites saturated with 0.5% BSA. Purified NGL-1-Fc protein was serially diluted and added to the coated wells for 1 hour. Signals were detected with the biotinylated anti-human IgGFc antibody, horseradish peroxidase-conjugated strepavidin and a chromogenic substrate TMB (Kirkgaard and Perry Lab). The reactions were terminated with phosphoric acid and absorbance at 450 nm was measured. Non-specific binding was determined in parallel by omitting the microtiter well coating or by incubating the wells with the irrelevant cMet-Fc fusion protein, and dissociation constants were determined using saturation curves and Scatchard analysis (FIG. 2a). […] Cell 87, 175-185. (1996)].

The target in assay [4] is recombinant 6xHis-tagged chick Netrin-1 protein (R&D Systems) (chicken, UniProt Q90922 26-606). Nature of the assay: solution binding assay, protein A bead pull-down, blot probed with anti-chicken Netrin-1. As for the experimental part:
as §1, §2

The target in assay [5] is B1. Nature of the assay: solid phase binding assay, Netrin-G1-his coated wells, serial dilution of NGL-1-Fc, saturation curve and Scatchard analysis. On the procedure: as §5
Assay [6] deals with B2. Nature of the assay: solution binding assay, protein A bead pull-down, blot probed with HisProbe. On the procedure:
as §1, §2

T1 sequence (P14210 32-728 limits assumed): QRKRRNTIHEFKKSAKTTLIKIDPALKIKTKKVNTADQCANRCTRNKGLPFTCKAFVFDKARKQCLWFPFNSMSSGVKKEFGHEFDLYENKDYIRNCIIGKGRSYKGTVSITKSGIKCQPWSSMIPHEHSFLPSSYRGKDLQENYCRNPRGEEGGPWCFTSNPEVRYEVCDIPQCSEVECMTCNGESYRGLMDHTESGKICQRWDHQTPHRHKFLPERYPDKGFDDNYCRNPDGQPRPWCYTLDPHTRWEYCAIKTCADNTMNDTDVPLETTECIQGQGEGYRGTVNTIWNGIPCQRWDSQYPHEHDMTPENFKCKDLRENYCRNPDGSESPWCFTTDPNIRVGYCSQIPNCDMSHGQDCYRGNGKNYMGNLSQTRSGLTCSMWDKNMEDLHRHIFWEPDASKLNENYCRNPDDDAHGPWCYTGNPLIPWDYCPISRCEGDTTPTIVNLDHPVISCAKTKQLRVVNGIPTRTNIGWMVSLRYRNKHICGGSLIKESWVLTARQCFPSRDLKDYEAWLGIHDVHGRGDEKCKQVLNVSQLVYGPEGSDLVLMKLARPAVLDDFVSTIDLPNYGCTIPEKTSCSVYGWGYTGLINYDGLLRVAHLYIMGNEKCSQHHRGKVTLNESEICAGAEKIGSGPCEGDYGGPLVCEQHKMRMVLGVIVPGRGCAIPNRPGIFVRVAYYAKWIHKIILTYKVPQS

Turning to B1, the binding result in the assay with human HGF protein is “no binding (tested: 5 nM)”; in assay [1], “no binding”; in assay [2], “no binding”. For the same molecule, the EC50 (read off the curve) (in general, the concentration needed to bring the measured effect to its halfway point) in assay [3] is ~2 nM.
Regarding B2, in assay [4], the binding result is “no binding”.
As to B3, the Kd (as a rule, the free concentration of one partner at which half of the binding sites on the other are occupied at equilibrium, for simple one-to-one binding) in assay [5] worked out at 1.6 nM. The binding result in assay [6] is listed as “no binding”.
